Key:
Assay in all cases: holdup assay
Design in all cases: key: below the threshold = too weak to quantify, mostly under pKd 3.1 to 4
MPDZ_5, O75970 = biological target: T1, MPDZ_5, O75970
T1 sequence (O75970 695-796, limits assumed, looked up): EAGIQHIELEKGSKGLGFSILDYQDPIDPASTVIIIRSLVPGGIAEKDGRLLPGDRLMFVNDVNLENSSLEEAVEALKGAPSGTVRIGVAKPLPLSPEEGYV

DVL3, Q92997 = biological target: T2, DVL3, Q92997
T2 sequence (Q92997 244-331, limits assumed, looked up): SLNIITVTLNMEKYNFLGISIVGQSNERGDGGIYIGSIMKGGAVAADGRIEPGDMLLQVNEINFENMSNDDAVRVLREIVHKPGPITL

SHANK1, Q9Y566 = biological target: T3, SHANK1, Q9Y566
T3 sequence (Q9Y566 658-767, limits assumed, looked up): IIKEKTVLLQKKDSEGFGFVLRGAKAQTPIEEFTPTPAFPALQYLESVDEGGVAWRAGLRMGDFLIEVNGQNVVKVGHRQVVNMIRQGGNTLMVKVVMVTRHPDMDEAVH

GRIP1_7, Q9Y3R0 = biological target: T4, GRIP1_7, Q9Y3R0
T4 sequence (Q9Y3R0 999-1096, limits assumed, looked up): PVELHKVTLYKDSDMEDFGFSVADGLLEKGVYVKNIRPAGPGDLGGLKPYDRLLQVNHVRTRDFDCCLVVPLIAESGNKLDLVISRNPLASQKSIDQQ

DLG3_3, Q92796 = biological target: T5, DLG3_3, Q92796
T5 sequence (Q92796 374-475, limits assumed, looked up): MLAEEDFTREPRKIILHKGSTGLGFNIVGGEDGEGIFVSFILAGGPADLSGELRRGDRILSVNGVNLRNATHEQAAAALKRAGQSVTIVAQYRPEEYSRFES

SNTB1, Q13884 = biological target: T6, SNTB1, Q13884
T6 sequence (Q13884 107-205, limits assumed, looked up): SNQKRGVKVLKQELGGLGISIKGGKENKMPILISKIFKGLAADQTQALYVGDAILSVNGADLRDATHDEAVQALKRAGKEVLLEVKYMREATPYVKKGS

FRMPD2_2, Q68DX3 = biological target: FRMPD2_2, Q68DX3
FRMPD2_2, Q68DX3, sequence (Q68DX3 944-1038): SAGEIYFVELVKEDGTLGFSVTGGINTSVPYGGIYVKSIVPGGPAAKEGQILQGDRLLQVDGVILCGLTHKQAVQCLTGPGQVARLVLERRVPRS

GORASP1, Q9BQQ3 = biological target: GORASP1, Q9BQQ3
GORASP1, Q9BQQ3, sequence (Q9BQQ3 1-208): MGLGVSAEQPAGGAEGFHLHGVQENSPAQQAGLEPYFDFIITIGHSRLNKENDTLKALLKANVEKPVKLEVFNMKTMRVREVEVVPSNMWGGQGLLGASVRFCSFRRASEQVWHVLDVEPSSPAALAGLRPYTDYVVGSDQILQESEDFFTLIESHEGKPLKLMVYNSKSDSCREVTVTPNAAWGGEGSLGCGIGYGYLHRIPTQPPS

SCRIB_2, Q14160 = biological target: SCRIB_2, Q14160
SCRIB_2, Q14160, sequence (Q14160 857-960): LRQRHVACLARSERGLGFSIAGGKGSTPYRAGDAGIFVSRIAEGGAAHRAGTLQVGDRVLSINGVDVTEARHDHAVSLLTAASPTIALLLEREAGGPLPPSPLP

FRMPD2_3, Q68DX3 = biological target: FRMPD2_3, Q68DX3
FRMPD2_3, Q68DX3, sequence (Q68DX3 1073-1166): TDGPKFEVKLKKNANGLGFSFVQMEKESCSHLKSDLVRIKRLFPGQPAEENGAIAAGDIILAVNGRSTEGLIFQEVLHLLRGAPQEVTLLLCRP

APBA1_2, Q02410 = biological target: T7, APBA1_2, Q02410
T7 sequence (Q02410 742-832, limits assumed, looked up): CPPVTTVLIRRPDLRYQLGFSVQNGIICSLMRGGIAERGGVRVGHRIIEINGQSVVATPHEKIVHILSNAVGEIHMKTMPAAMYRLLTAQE

APBA2_1, Q99767 = biological target: T8, APBA2_1, Q99767
T8 sequence (Q99767 563-664, limits assumed, looked up): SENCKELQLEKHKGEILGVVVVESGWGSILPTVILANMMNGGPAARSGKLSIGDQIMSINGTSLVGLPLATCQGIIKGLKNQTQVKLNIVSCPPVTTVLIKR

DLG1_3, Q12959 = biological target: DLG1_3, Q12959
DLG1_3, Q12959, sequence (Q12959 457-571): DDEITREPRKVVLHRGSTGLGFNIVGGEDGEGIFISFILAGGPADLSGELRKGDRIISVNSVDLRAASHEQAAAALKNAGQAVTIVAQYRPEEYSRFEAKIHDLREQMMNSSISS

FRMPD2_1, Q68DX3 = biological target: FRMPD2_1, Q68DX3
FRMPD2_1, Q68DX3, sequence (Q68DX3 770-861): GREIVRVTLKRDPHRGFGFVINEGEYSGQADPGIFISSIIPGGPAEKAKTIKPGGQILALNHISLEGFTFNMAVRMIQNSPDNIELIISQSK

CASK, O14936 = biological target: CASK, O14936
CASK, O14936, sequence (O14936 487-570): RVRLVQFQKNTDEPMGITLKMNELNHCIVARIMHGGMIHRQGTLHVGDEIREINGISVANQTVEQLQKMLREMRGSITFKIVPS

FRMPD1, Q5SYB0 = biological target: T9, FRMPD1, Q5SYB0
T9 sequence (Q5SYB0 52-145, limits assumed, looked up): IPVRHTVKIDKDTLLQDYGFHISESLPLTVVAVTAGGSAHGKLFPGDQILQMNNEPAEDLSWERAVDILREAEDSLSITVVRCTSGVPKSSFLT

LIN7C, Q9NUP9 = biological target: T10, LIN7C, Q9NUP9
T10 sequence (Q9NUP9 88-185, limits assumed, looked up): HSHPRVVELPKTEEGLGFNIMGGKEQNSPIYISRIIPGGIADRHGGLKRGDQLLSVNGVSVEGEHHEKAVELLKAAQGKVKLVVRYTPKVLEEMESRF

LNX1_3, Q8TBB1 = biological target: LNX1_3, Q8TBB1
LNX1_3, Q8TBB1, sequence (Q8TBB1 500-596): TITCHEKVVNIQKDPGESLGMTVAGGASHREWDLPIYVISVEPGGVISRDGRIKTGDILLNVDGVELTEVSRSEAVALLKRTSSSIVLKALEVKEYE

GOPC, Q9HD26 = biological target: GOPC, Q9HD26
MAGI2_6, Q86UL8 = biological target: MAGI2_6, Q86UL8
MAGI2_6, Q86UL8, sequence (Q86UL8 1141-1229): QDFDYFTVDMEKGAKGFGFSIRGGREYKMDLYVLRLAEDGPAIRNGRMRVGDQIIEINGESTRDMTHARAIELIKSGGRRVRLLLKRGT

MAGI2_4, Q86UL8 = biological target: MAGI2_4, Q86UL8
MAGI2_4, Q86UL8, sequence (Q86UL8 772-865): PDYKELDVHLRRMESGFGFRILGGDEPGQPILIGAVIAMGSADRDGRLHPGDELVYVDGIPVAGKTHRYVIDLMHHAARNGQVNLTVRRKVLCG

LAP2, Q96RT1 = biological target: LAP2, Q96RT1
LAP2, Q96RT1, sequence (Q96RT1 other isoform, or with tags, fused parts or gaps): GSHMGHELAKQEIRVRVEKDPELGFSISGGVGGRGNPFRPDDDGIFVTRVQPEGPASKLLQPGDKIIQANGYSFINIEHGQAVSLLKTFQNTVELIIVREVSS

DLG4_3, P78352 = biological target: DLG4_3, P78352
DLG4_3, P78352, sequence (P78352 306-403): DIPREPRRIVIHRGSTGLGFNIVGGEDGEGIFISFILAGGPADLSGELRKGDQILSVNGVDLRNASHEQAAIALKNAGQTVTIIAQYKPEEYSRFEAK

Inadl_1, Q8NI35 = biological target: Inadl_1, Q8NI35
Inadl_1, Q8NI35, sequence (Q8NI35 113-229): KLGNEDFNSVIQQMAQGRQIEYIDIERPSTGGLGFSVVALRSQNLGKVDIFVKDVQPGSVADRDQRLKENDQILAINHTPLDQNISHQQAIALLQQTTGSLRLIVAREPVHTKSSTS

PDZD7_3, Q9H5P4 = biological target: T11, PDZD7_3, Q9H5P4
T11 sequence (Q9H5P4 857-944, limits assumed, looked up): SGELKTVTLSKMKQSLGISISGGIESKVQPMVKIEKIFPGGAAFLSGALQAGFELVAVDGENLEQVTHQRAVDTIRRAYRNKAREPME

Inadl_5, Q8NI35 = biological target: Inadl_5, Q8NI35
Inadl_5, Q8NI35, sequence (Q8NI35 673-780): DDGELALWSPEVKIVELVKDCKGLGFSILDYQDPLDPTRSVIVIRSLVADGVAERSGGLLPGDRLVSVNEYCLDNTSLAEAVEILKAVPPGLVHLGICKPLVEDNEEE

NOS1, P29475 = biological target: NOS1, P29475
NOS1, P29475, sequence (P29475 9-101): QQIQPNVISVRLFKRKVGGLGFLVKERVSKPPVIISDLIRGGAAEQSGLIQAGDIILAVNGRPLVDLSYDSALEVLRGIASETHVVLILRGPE

[1] = plain residues with an end cap or a label only (N-terminal biotin on a linker: ttds)
[2] = plain residues with an end cap or a label only (N-terminal biotin on a linker: ahx)

B1: CIT, O14578 (peptide)
chain: VNKVWDQSSV
MPDZ_5, O75970; [1]
  pKd: below the threshold
DVL3, Q92997; [1]
  pKd: below the threshold
SHANK1, Q9Y566; [1]
  pKd: 3.57
GRIP1_7, Q9Y3R0; [1]
  pKd: below the threshold
DLG3_3, Q92796; [1]
  pKd: 3.7
SNTB1, Q13884; [1]
  pKd: below the threshold
FRMPD2_2, Q68DX3; [1]
  pKd: below the threshold
GORASP1, Q9BQQ3; [1]
  pKd: below the threshold
SCRIB_2, Q14160; [1]
  pKd: 3.51
FRMPD2_3, Q68DX3; [1]
  pKd: below the threshold
APBA1_2, Q02410; [1]
  pKd: 3.49
APBA2_1, Q99767; [1]
  pKd: below the threshold
DLG1_3, Q12959; [1]
  pKd: 3.49
FRMPD2_1, Q68DX3; [1]
  pKd: below the threshold
CASK, O14936; [1]
  pKd: below the threshold
FRMPD1, Q5SYB0; [1]
  pKd: below the threshold
LIN7C, Q9NUP9; [1]
  pKd: below the threshold
LNX1_3, Q8TBB1; [1]
  pKd: below the threshold
GOPC, Q9HD26; [1]
  pKd: 3.77
MAGI2_6, Q86UL8; [1]
  pKd: 3.57
MAGI2_4, Q86UL8; [1]
  pKd: below the threshold
LAP2, Q96RT1; [1]
  pKd: 4.04
DLG4_3, P78352; [1]
  pKd: 3.62
Inadl_1, Q8NI35; [1]
  pKd: below the threshold
PDZD7_3, Q9H5P4; [1]
  pKd: below the threshold
Inadl_5, Q8NI35; [1]
  pKd: below the threshold
NOS1, P29475; [1]
  pKd: below the threshold

B2: GRIN2B, Q13224 (peptide)
chain: EKLSSIESDV
MPDZ_5, O75970; [2]
  pKd: below the threshold
DVL3, Q92997; [2]
  pKd: below the threshold
SHANK1, Q9Y566; [2]
  pKd: below the threshold
GRIP1_7, Q9Y3R0; [2]
  pKd: 3.48
DLG3_3, Q92796; [2]
  pKd: below the threshold
SNTB1, Q13884; [2]
  pKd: 4.46
FRMPD2_2, Q68DX3; [2]
  pKd: 3.91
GORASP1, Q9BQQ3; [2]
  pKd: below the threshold
SCRIB_2, Q14160; [2]
  pKd: 4.34
FRMPD2_3, Q68DX3; [2]
  pKd: below the threshold
APBA1_2, Q02410; [2]
  pKd: below the threshold
APBA2_1, Q99767; [2]
  pKd: 3.53
DLG1_3, Q12959; [2]
  pKd: below the threshold
FRMPD2_1, Q68DX3; [2]
  pKd: below the threshold
CASK, O14936; [2]
  pKd: below the threshold
FRMPD1, Q5SYB0; [2]
  pKd: below the threshold
LIN7C, Q9NUP9; [2]
  pKd: below the threshold
LNX1_3, Q8TBB1; [2]
  pKd: below the threshold
GOPC, Q9HD26; [2]
  pKd: 3.63
MAGI2_6, Q86UL8; [2]
  pKd: 4.65
MAGI2_4, Q86UL8; [2]
  pKd: 3.61
LAP2, Q96RT1; [2]
  pKd: 4.26
DLG4_3, P78352; [2]
  pKd: below the threshold
Inadl_1, Q8NI35; [2]
  pKd: below the threshold
PDZD7_3, Q9H5P4; [2]
  pKd: 3.77
Inadl_5, Q8NI35; [2]
  pKd: below the threshold
NOS1, P29475; [2]
  pKd: below the threshold

B3: HTLV1-TAX1, P03409 (peptide)
chain: SEKHFRETEV
MPDZ_5, O75970; [1]
  pKd: below the threshold
DVL3, Q92997; [1]
  pKd: 3.62
SHANK1, Q9Y566; [1]
  pKd: below the threshold
GRIP1_7, Q9Y3R0; [1]
  pKd: below the threshold
DLG3_3, Q92796; [1]
  pKd: 5.34
SNTB1, Q13884; [1]
  pKd: 6.12
FRMPD2_2, Q68DX3; [1]
  pKd: below the threshold
GORASP1, Q9BQQ3; [1]
  pKd: below the threshold
SCRIB_2, Q14160; [1]
  pKd: 5.76
FRMPD2_3, Q68DX3; [1]
  pKd: 3.77
APBA1_2, Q02410; [1]
  pKd: 3.56
APBA2_1, Q99767; [1]
  pKd: below the threshold
DLG1_3, Q12959; [1]
  pKd: 5.22
FRMPD2_1, Q68DX3; [1]
  pKd: 3.75
CASK, O14936; [1]
  pKd: below the threshold
FRMPD1, Q5SYB0; [1]
  pKd: below the threshold
LIN7C, Q9NUP9; [1]
  pKd: 4.59
LNX1_3, Q8TBB1; [1]
  pKd: 3.64
GOPC, Q9HD26; [1]
  pKd: below the threshold
MAGI2_6, Q86UL8; [1]
  pKd: 4.43
MAGI2_4, Q86UL8; [1]
  pKd: 4.49
LAP2, Q96RT1; [1]
  pKd: 4.99
DLG4_3, P78352; [1]
  pKd: 5.34
Inadl_1, Q8NI35; [1]
  pKd: below the threshold
PDZD7_3, Q9H5P4; [1]
  pKd: 4.82
Inadl_5, Q8NI35; [1]
  pKd: below the threshold
NOS1, P29475; [1]
  pKd: 4.09

B4: PBK, Q96KB5 (peptide)
chain: HIVEALETDV
MPDZ_5, O75970; [1]
  pKd: below the threshold
DVL3, Q92997; [1]
  pKd: below the threshold
SHANK1, Q9Y566; [1]
  pKd: below the threshold
GRIP1_7, Q9Y3R0; [1]
  pKd: below the threshold
DLG3_3, Q92796; [1]
  pKd: 3.88
SNTB1, Q13884; [1]
  pKd: 5.29
FRMPD2_2, Q68DX3; [1]
  pKd: 4.66
GORASP1, Q9BQQ3; [1]
  pKd: below the threshold
SCRIB_2, Q14160; [1]
  pKd: 5.32
FRMPD2_3, Q68DX3; [1]
  pKd: below the threshold
APBA1_2, Q02410; [1]
  pKd: 4.27
APBA2_1, Q99767; [1]
  pKd: below the threshold
DLG1_3, Q12959; [1]
  pKd: below the threshold
FRMPD2_1, Q68DX3; [1]
  pKd: below the threshold
CASK, O14936; [1]
  pKd: below the threshold
FRMPD1, Q5SYB0; [1]
  pKd: below the threshold
LIN7C, Q9NUP9; [1]
  pKd: 4.05
LNX1_3, Q8TBB1; [1]
  pKd: below the threshold
GOPC, Q9HD26; [1]
  pKd: below the threshold
MAGI2_6, Q86UL8; [1]
  pKd: 5.35
MAGI2_4, Q86UL8; [1]
  pKd: 4.4
LAP2, Q96RT1; [1]
  pKd: 5.04
DLG4_3, P78352; [1]
  pKd: below the threshold
Inadl_1, Q8NI35; [1]
  pKd: below the threshold
PDZD7_3, Q9H5P4; [1]
  pKd: 4.6
Inadl_5, Q8NI35; [1]
  pKd: below the threshold
NOS1, P29475; [1]
  pKd: below the threshold
